According to patent US20180002431A1, “FAS AND DRs ARE NOVEL MOLECULAR TARGETS OF SENESCENT CELLS” (BioVentures, LLC, priority 2015, published 2018):

B1: TRAIL: recombinant TNF-related apoptosis-inducing ligand, Cat #310-04, Peprotech (protein, UniProt P50591 1-281, looked up)
Tumor necrosis factor ligand …: MAMMEVQGGPSLGQTCVLIVIFTVLLQSLCVAVTYVYFTNELKQMQDKYSKSGIACFLKEDDSYWDPNDEESMNSPCWQVKWQLRQLVRKMILRTSEETISTVQEKQQNISPLVRERGPQRVAAHITGTRGRSNTLSSPNSKNEKALGRKINSWESSRSGHSFLSNLHLRNGELVIHEKGFYYIYSQTYFRFQEEIKENTKNDKQMVQYIYKYTSYPDPILLMKSARNSCWSKDAEYGLYSIYQGGIFELKENDRIFVSVTNEHLIDMDHEASFFGAFLVG

Key:
[1] = system: senescent WI-38 cells induced by IR (IR-SC); assay: Viable cell count, senescent WI-38 cells induced by IR; type: cell-based, human
Method: (§1) FIG. 2A, FIG. 2B, FIG. 2C, FIG. 2D, FIG. 2E, FIG. 2F, FIG. 2G, FIG. 2H, FIG. 2I, FIG. 2J, FIG. 2K, FIG. 2L, FIG. 2M and FIG. 2N depict graphs showing that FasAb and Trail selectively kill senescent cells by induction of apoptosis. (FIG. 2A, FIG. 2B, FIG. 2C, FIG. 2D) Non-senescent cells (NC) and senescent WI-38 cells induced by IR (IR-SC) were incubated with different concentrations of FasAb (Clone CH11, Cat #05-201, Millipore, Mass., USA) or Trail (Cat #310-04, Peprotech, N.J., USA) for 3 days to count number of viable cells. The data presented are means±SD of viable cells as a percent of control without FasAb or Trail treatment from 3 independent experiments. **, p<0.01; ***, p<0.001; and ****, p<0.0001, vs. without FasAb or Trail. (FIG. 2E, FIG. 2F) WI-38 NC and IR-SC were incubated with vehicle (Veh), FasAb (10 ng/ml) or Trail (12.5 ng/ml) for 3 days, and apoptosis in these cells was determined by Annexin V-FITC staining and flow cytometry. […] (FIG. 2G, FIG. 2H) NCs and IR-SCs were incubated with vehicle (Veh), FasAb (10 ng/ml) or Trail (12.5 ng/ml) for 3 days after the cells were preincubated with vehicle (Veh) or 10 μM Q-VD-OPh hydrate (QVD) for 2 hours, and apoptosis in these cells was determined by Annexin V-FITC staining and flow cytometry. […]

[2] = system: senescent WI-38 cells induced by IR (IR-SC); assay: Apoptosis by Annexin V-FITC staining and flow cytometry, WI-38 IR-SC; type: cell-based, human
Method: as §1, with “The data presented are means±SD of viable cells as a percent of control without FasAb or Trail treatment from 3 independent experiments. **, p<0.01; ***, p<0.001; and ****, p<0.0001, vs. without FasAb or Trail.” left out
WI-38 NC and IR-SC were incubated with vehicle (Veh), FasAb (10 ng/ml) or TRAIL (12.5 ng/ml) for 3 days, and apoptosis in these cells was determined by Annexin V-FITC staining and flow cytometry. […]

[3] = system: senescent IMR90 cells induced by IR (IR-SC); assay: Viable cell count, senescent IMR90 cells induced by IR; type: cell-based; conditions: different concentrations, 3 days (FIG. 2K-2N)

Molecule	effect of QVD on the viable cell reduction by FasAb and TRAIL ([1]; IR-SC, 10 μM QVD preincubated 2 hours, then FasAb 10 ng/ml or TRAIL 12.5 ng/ml for 3 days (FIG. 2I, 2J))	effect of QVD on apoptosis induced by FasAb and TRAIL ([2]; 10 μM QVD preincubated 2 hours, then FasAb 10 ng/ml or TRAIL 12.5 ng/ml for 3 days (FIG. 2G, 2H))	number of viable cells ([1]; WI-38 IR-SC vs NC, different concentrations, 3 days (FIG. 2A-2D))	apoptosis (Annexin V-FITC+ cells) ([2]; WI-38 IR-SC, FasAb 10 ng/ml or TRAIL 12.5 ng/ml, 3 days, relative to untreated or non-senescent cells (FIG. 2E, 2F))	number of viable cells (reported as apoptosis induction) [3]
CC(C)[C@H](NC(=O)c1ccc2ccccc2n1)C(=O)N[C@@H](CC(=O)O)C(=O)COc1c(F)cccc1F [QVD, Q-VD-OPh hydrate, reference compound]	blocks the activity observed with FasAb and TRAIL	blocked the ability of FasAb and TRAIL to induce apoptosis			
B1			significantly reduced the number of viable cells relative to NC	significantly increased	induced apoptosis
